Test results: patent US20230242902A1, “A HIGHLY ERROR-PRONE […] R[…] FOR TARGETED CONTINUOUS EVOLUTION IN VIVO” (The Regents of the University of California, priority 2017, published 2023)

B1: Y313M: TP-DNAP1 variant (protein)
chain: MDYKDKALNDLRNVYADFDSLPLDFRQILIKDRATLLQKEDVEKKILERQEDAKKYAEYLKQSEIPERISLPNIKRHKGVSISFEETSEDMVLEPRPFIFDGLNIRCFRRETIFSLKNKILNMVKESSSFKNVSRQSVSFMYFKIFNKGKVIASTKSVNIYEDKIDERLEDLCNNFDDVLKKIIDVTYGYESLFVSETYSYVIFYAKSIYFPQPRCVNNWGNNIPNILTFDSFKLFTANKNNVSCIKQCSRFLWQKDFNTLEEMIEYKNGNICIVTPQLHINDVRDIKSFNDIRLYSESPIKTFSVIDNTITMLFYFKEHLGVIFNITKSRHDRRVTKFSPLSKFSDVKNITVCFDIESYFDPEKESNQVNIPFICCASIIYNKVIGNIVDFEGRDCVAQMIEYVVDICGELNISSVELIAHNGGGYDFHYILSSMYNPAAIKNILIRNNSFISFNFAHDGVKFSVKDSYSFLLCSLANASKAFLNEETFKKTDFPHHDLKTADDLYKVYKEWSSVNTEINHVVEKEKLLITSEHIVNFTKNDKSKTLIEWSKDYCRNDVLVLSKVWLEFKNAVEDIFNCELVDQTMTLAGLSYKLFQANMPFDVELRHPNKEDYFNMREALIGGRCISVNGIYKDVLCLDVKSLYPASMAFYDQPYGSFKRVSSRPKDELGIYYVRVTPNRNNKSNFFPIRSHNKITYNNFEESTYIAWYTNVDIDIGLSEGHNIEYIPFDSYGNIGYSWSKKGKIFEKYIKDVLYKLKIKYEKQNNKVKRNVIKIIMNSLWGKFAQKWVNFEYFIKSEDDIDFESEEAYKIWDTDFMLIKKIKESTYSSKPIQNGVFTLSWARYHMKSIWDAGAKEGAECIYSDTDSIFVHKEHFKKNAKFMLNGLKVPIIGSEVGQLELECEFDKLLCAGKKQYMGFYTYFQDGKPCIKEKKRFKGIPSNYIIPELYAHLLSGADKEAKIQFLKFRREWGSVKGYIENKTVKAT
B2: Y313F: TP-DNAP1 variant (protein)
chain: MDYKDKALNDLRNVYADFDSLPLDFRQILIKDRATLLQKEDVEKKILERQEDAKKYAEYLKQSEIPERISLPNIKRHKGVSISFEETSEDMVLEPRPFIFDGLNIRCFRRETIFSLKNKILNMVKESSSFKNVSRQSVSFMYFKIFNKGKVIASTKSVNIYEDKIDERLEDLCNNFDDVLKKIIDVTYGYESLFVSETYSYVIFYAKSIYFPQPRCVNNWGNNIPNILTFDSFKLFTANKNNVSCIKQCSRFLWQKDFNTLEEMIEYKNGNICIVTPQLHINDVRDIKSFNDIRLYSESPIKTFSVIDNTITFLFYFKEHLGVIFNITKSRHDRRVTKFSPLSKFSDVKNITVCFDIESYFDPEKESNQVNIPFICCASIIYNKVIGNIVDFEGRDCVAQMIEYVVDICGELNISSVELIAHNGGGYDFHYILSSMYNPAAIKNILIRNNSFISFNFAHDGVKFSVKDSYSFLLCSLANASKAFLNEETFKKTDFPHHDLKTADDLYKVYKEWSSVNTEINHVVEKEKLLITSEHIVNFTKNDKSKTLIEWSKDYCRNDVLVLSKVWLEFKNAVEDIFNCELVDQTMTLAGLSYKLFQANMPFDVELRHPNKEDYFNMREALIGGRCISVNGIYKDVLCLDVKSLYPASMAFYDQPYGSFKRVSSRPKDELGIYYVRVTPNRNNKSNFFPIRSHNKITYNNFEESTYIAWYTNVDIDIGLSEGHNIEYIPFDSYGNIGYSWSKKGKIFEKYIKDVLYKLKIKYEKQNNKVKRNVIKIIMNSLWGKFAQKWVNFEYFIKSEDDIDFESEEAYKIWDTDFMLIKKIKESTYSSKPIQNGVFTLSWARYHMKSIWDAGAKEGAECIYSDTDSIFVHKEHFKKNAKFMLNGLKVPIIGSEVGQLELECEFDKLLCAGKKQYMGFYTYFQDGKPCIKEKKRFKGIPSNYIIPELYAHLLSGADKEAKIQFLKFRREWGSVKGYIENKTVKAT
B3: Y313W: TP-DNAP1 variant (protein)
chain: MDYKDKALNDLRNVYADFDSLPLDFRQILIKDRATLLQKEDVEKKILERQEDAKKYAEYLKQSEIPERISLPNIKRHKGVSISFEETSEDMVLEPRPFIFDGLNIRCFRRETIFSLKNKILNMVKESSSFKNVSRQSVSFMYFKIFNKGKVIASTKSVNIYEDKIDERLEDLCNNFDDVLKKIIDVTYGYESLFVSETYSYVIFYAKSIYFPQPRCVNNWGNNIPNILTFDSFKLFTANKNNVSCIKQCSRFLWQKDFNTLEEMIEYKNGNICIVTPQLHINDVRDIKSFNDIRLYSESPIKTFSVIDNTITWLFYFKEHLGVIFNITKSRHDRRVTKFSPLSKFSDVKNITVCFDIESYFDPEKESNQVNIPFICCASIIYNKVIGNIVDFEGRDCVAQMIEYVVDICGELNISSVELIAHNGGGYDFHYILSSMYNPAAIKNILIRNNSFISFNFAHDGVKFSVKDSYSFLLCSLANASKAFLNEETFKKTDFPHHDLKTADDLYKVYKEWSSVNTEINHVVEKEKLLITSEHIVNFTKNDKSKTLIEWSKDYCRNDVLVLSKVWLEFKNAVEDIFNCELVDQTMTLAGLSYKLFQANMPFDVELRHPNKEDYFNMREALIGGRCISVNGIYKDVLCLDVKSLYPASMAFYDQPYGSFKRVSSRPKDELGIYYVRVTPNRNNKSNFFPIRSHNKITYNNFEESTYIAWYTNVDIDIGLSEGHNIEYIPFDSYGNIGYSWSKKGKIFEKYIKDVLYKLKIKYEKQNNKVKRNVIKIIMNSLWGKFAQKWVNFEYFIKSEDDIDFESEEAYKIWDTDFMLIKKIKESTYSSKPIQNGVFTLSWARYHMKSIWDAGAKEGAECIYSDTDSIFVHKEHFKKNAKFMLNGLKVPIIGSEVGQLELECEFDKLLCAGKKQYMGFYTYFQDGKPCIKEKKRFKGIPSNYIIPELYAHLLSGADKEAKIQFLKFRREWGSVKGYIENKTVKAT
B4: I327Q: TP-DNAP1 variant (protein)
chain: MDYKDKALNDLRNVYADFDSLPLDFRQILIKDRATLLQKEDVEKKILERQEDAKKYAEYLKQSEIPERISLPNIKRHKGVSISFEETSEDMVLEPRPFIFDGLNIRCFRRETIFSLKNKILNMVKESSSFKNVSRQSVSFMYFKIFNKGKVIASTKSVNIYEDKIDERLEDLCNNFDDVLKKIIDVTYGYESLFVSETYSYVIFYAKSIYFPQPRCVNNWGNNIPNILTFDSFKLFTANKNNVSCIKQCSRFLWQKDFNTLEEMIEYKNGNICIVTPQLHINDVRDIKSFNDIRLYSESPIKTFSVIDNTITYLFYFKEHLGVIFNQTKSRHDRRVTKFSPLSKFSDVKNITVCFDIESYFDPEKESNQVNIPFICCASIIYNKVIGNIVDFEGRDCVAQMIEYVVDICGELNISSVELIAHNGGGYDFHYILSSMYNPAAIKNILIRNNSFISFNFAHDGVKFSVKDSYSFLLCSLANASKAFLNEETFKKTDFPHHDLKTADDLYKVYKEWSSVNTEINHVVEKEKLLITSEHIVNFTKNDKSKTLIEWSKDYCRNDVLVLSKVWLEFKNAVEDIFNCELVDQTMTLAGLSYKLFQANMPFDVELRHPNKEDYFNMREALIGGRCISVNGIYKDVLCLDVKSLYPASMAFYDQPYGSFKRVSSRPKDELGIYYVRVTPNRNNKSNFFPIRSHNKITYNNFEESTYIAWYTNVDIDIGLSEGHNIEYIPFDSYGNIGYSWSKKGKIFEKYIKDVLYKLKIKYEKQNNKVKRNVIKIIMNSLWGKFAQKWVNFEYFIKSEDDIDFESEEAYKIWDTDFMLIKKIKESTYSSKPIQNGVFTLSWARYHMKSIWDAGAKEGAECIYSDTDSIFVHKEHFKKNAKFMLNGLKVPIIGSEVGQLELECEFDKLLCAGKKQYMGFYTYFQDGKPCIKEKKRFKGIPSNYIIPELYAHLLSGADKEAKIQFLKFRREWGSVKGYIENKTVKAT
B5: Y313V: TP-DNAP1 variant (protein)
chain: MDYKDKALNDLRNVYADFDSLPLDFRQILIKDRATLLQKEDVEKKILERQEDAKKYAEYLKQSEIPERISLPNIKRHKGVSISFEETSEDMVLEPRPFIFDGLNIRCFRRETIFSLKNKILNMVKESSSFKNVSRQSVSFMYFKIFNKGKVIASTKSVNIYEDKIDERLEDLCNNFDDVLKKIIDVTYGYESLFVSETYSYVIFYAKSIYFPQPRCVNNWGNNIPNILTFDSFKLFTANKNNVSCIKQCSRFLWQKDFNTLEEMIEYKNGNICIVTPQLHINDVRDIKSFNDIRLYSESPIKTFSVIDNTITVLFYFKEHLGVIFNITKSRHDRRVTKFSPLSKFSDVKNITVCFDIESYFDPEKESNQVNIPFICCASIIYNKVIGNIVDFEGRDCVAQMIEYVVDICGELNISSVELIAHNGGGYDFHYILSSMYNPAAIKNILIRNNSFISFNFAHDGVKFSVKDSYSFLLCSLANASKAFLNEETFKKTDFPHHDLKTADDLYKVYKEWSSVNTEINHVVEKEKLLITSEHIVNFTKNDKSKTLIEWSKDYCRNDVLVLSKVWLEFKNAVEDIFNCELVDQTMTLAGLSYKLFQANMPFDVELRHPNKEDYFNMREALIGGRCISVNGIYKDVLCLDVKSLYPASMAFYDQPYGSFKRVSSRPKDELGIYYVRVTPNRNNKSNFFPIRSHNKITYNNFEESTYIAWYTNVDIDIGLSEGHNIEYIPFDSYGNIGYSWSKKGKIFEKYIKDVLYKLKIKYEKQNNKVKRNVIKIIMNSLWGKFAQKWVNFEYFIKSEDDIDFESEEAYKIWDTDFMLIKKIKESTYSSKPIQNGVFTLSWARYHMKSIWDAGAKEGAECIYSDTDSIFVHKEHFKKNAKFMLNGLKVPIIGSEVGQLELECEFDKLLCAGKKQYMGFYTYFQDGKPCIKEKKRFKGIPSNYIIPELYAHLLSGADKEAKIQFLKFRREWGSVKGYIENKTVKAT
B6: Y316R: TP-DNAP1 variant (protein)
chain: MDYKDKALNDLRNVYADFDSLPLDFRQILIKDRATLLQKEDVEKKILERQEDAKKYAEYLKQSEIPERISLPNIKRHKGVSISFEETSEDMVLEPRPFIFDGLNIRCFRRETIFSLKNKILNMVKESSSFKNVSRQSVSFMYFKIFNKGKVIASTKSVNIYEDKIDERLEDLCNNFDDVLKKIIDVTYGYESLFVSETYSYVIFYAKSIYFPQPRCVNNWGNNIPNILTFDSFKLFTANKNNVSCIKQCSRFLWQKDFNTLEEMIEYKNGNICIVTPQLHINDVRDIKSFNDIRLYSESPIKTFSVIDNTITYLFRFKEHLGVIFNITKSRHDRRVTKFSPLSKFSDVKNITVCFDIESYFDPEKESNQVNIPFICCASIIYNKVIGNIVDFEGRDCVAQMIEYVVDICGELNISSVELIAHNGGGYDFHYILSSMYNPAAIKNILIRNNSFISFNFAHDGVKFSVKDSYSFLLCSLANASKAFLNEETFKKTDFPHHDLKTADDLYKVYKEWSSVNTEINHVVEKEKLLITSEHIVNFTKNDKSKTLIEWSKDYCRNDVLVLSKVWLEFKNAVEDIFNCELVDQTMTLAGLSYKLFQANMPFDVELRHPNKEDYFNMREALIGGRCISVNGIYKDVLCLDVKSLYPASMAFYDQPYGSFKRVSSRPKDELGIYYVRVTPNRNNKSNFFPIRSHNKITYNNFEESTYIAWYTNVDIDIGLSEGHNIEYIPFDSYGNIGYSWSKKGKIFEKYIKDVLYKLKIKYEKQNNKVKRNVIKIIMNSLWGKFAQKWVNFEYFIKSEDDIDFESEEAYKIWDTDFMLIKKIKESTYSSKPIQNGVFTLSWARYHMKSIWDAGAKEGAECIYSDTDSIFVHKEHFKKNAKFMLNGLKVPIIGSEVGQLELECEFDKLLCAGKKQYMGFYTYFQDGKPCIKEKKRFKGIPSNYIIPELYAHLLSGADKEAKIQFLKFRREWGSVKGYIENKTVKAT

Test system: p1
Assay: p1 copy number by p1-encoded mKate2 fluorescence
Format: cell-based, S. cerevisiae
Settings: OR-Y24, measured in triplicate
Outline: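 p1 copy number came from mKate2 fluorescence of saturated OR-Y24 cultures (triplicates, regrown from 1:10,000), read by flow cytometry and converted through a linear curve calibrated by qPCR (LEU2 against genomic LEU3). For small-scale tests, OD600-normalized plate-reader fluorescence (588/633 nm) was scaled to a w.t. TP-DNAP1 control.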

Going from B1 to B2, the “Mean fold-increase over w.t. (p1 copy number)” value (“Mean fold-increase” for short) rises from 1.94 fold to 2.11 fold.

B3 and B4 are the same in “Mean fold-increase” value: 2.15 fold for the first, 2.15 fold for the second.

Compared with B5, B6 is lower in “Mean fold-increase” value: 2.48 fold for the first, 2.46 fold for the second.
